# Assay results reported in US20030229041A1.
# Target: bone morphogenetic protein 6 (UniProt P22004)
# Assay: cell-based or functional assay
# UniProt P22004, sequence (P22004 382-513 limits assumed): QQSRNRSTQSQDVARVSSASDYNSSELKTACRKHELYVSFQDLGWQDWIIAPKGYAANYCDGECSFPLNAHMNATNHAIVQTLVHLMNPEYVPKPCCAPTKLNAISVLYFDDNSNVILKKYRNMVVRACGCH
substance,measurement,value
mouse noggin (from UniProt P97466 28-232),BMP-6 stimulated alkaline phosphatase activity in mouse mesenchymal C3H10T1/2 cells (IC50),0.3 µg/mL
